The series concerns the molecule itself. Briefly: crystal structure; DNTTIP1 (56–147), hanging drops at 22°C, 100 mM sodium acetate pH 4.6, 14% propan-2-ol; MAD phasing with SeMet protein; P212121.

Here are results for one protein from PMC4344507, “Structural and functional characterization of a cell cycle associated HDAC1/2 complex reveals the structural basis for complex assembly and nucleosome targeting” (Nucleic Acids Research, 2015).

As a reminder, the stoichiometry N is a count of units in the complex or per binding partner.

B1: Human DNTTIP1 (56–147) (domain or fragment, UniProt Q9H147 56-147, looked up)
chain: MTTSFTDPAISMDLLRAVLQPSINEEIQTVFNKYMKFFQKAALNVRDNVGEEVDAEQLIQEACRSCLEQAKLLFSDGEKVIPRLTHELPGIK
notes: DNTTIP1, human, residues 56-147; Native and selenomethionine substituted protein were both crystallized; six molecules (three dimers) in the asymmetric unit; also called DD; N-terminal dimerization domain; source: E. coli Rosetta-pLysS or B834(DE3), purified (Ni-NTA, Resource Q, Superdex S75)
As for B1, the “stoichiometry N” value stood at 2.
